Reference: patent US20240109973A1 (Memorial Sloan Kettering, published 2024)

How the values were obtained:
[1] = target: T1, human CD40 on cells (human, UniProt P25942 21-277); assay: cell-based or functional assay
[2] = target: T2, recombinant human CD40 (residues 21-192) fused to a 6×His-tag at the carboxy-terminus (human, UniProt P25942 21-192); assay: BLI, soluble monomeric human CD40-His
T2 construct: range 21-192; also called Human CD40-His; soluble, monomeric human CD40-His
Description: Dissociation constants (KD), on-rates (kon) and off-rates (koff) for the 10F12 chimeric mAb were determined by BLI using soluble, monomeric human CD40-His (Table 1).

[3] = target: T1, human CD40 on cells; assay: cell-based or functional assay; remark: listed apart in the source
[4] = target: T2, recombinant human CD40 (residues …); assay: BLI, Octet Red96e
Description: (§1) Antibody TDI-Y-003 produced in stable CHO pools was tested in a series of binding and functional assays in vitro as well as an in vivo study in a disease-relevant animal model. Affinity to human CD40 was measured by BLI using an Octet Red96e. […] The slower off-rate seen for this interaction is likely a result of the avidity between the bivalent TDI-Y-003 IgG and the dimeric CD40-Fc.

[5] = target: T3, Cyno CD40-His (cynomolgus monkey, UniProt G7PG38 21-192); assay: BLI, Octet Red96e
T3 construct: also called monomeric cynomolgus monkey CD40; not shown: His tag
Description: (§2) Affinity to cynomolgus monkey and mouse CD40 was measured by BLI using an Octet Red96e.

[6] = target: T4, Mouse CD40-His (mouse, UniProt P27512 24-192, limits assumed); assay: BLI, Octet Red96e
T4 construct: also called monomeric mouse CD40; not shown: His tag
T4 sequence (looked up): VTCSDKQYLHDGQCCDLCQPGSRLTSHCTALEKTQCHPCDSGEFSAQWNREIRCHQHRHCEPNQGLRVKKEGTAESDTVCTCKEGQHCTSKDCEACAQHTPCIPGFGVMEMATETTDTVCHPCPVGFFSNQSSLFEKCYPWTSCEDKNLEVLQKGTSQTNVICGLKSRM
Description: as §2

[7] = target: T1, human CD40 on cells; assay: cell-based or functional assay; remark: listed apart in the source
[8] = target: T1, human CD40 on cells; assay: flow cytometry, Raji cells (endogenous CD40)
Description: (§3) To assess the binding of TDI-Y-003 to cell surface-bound CD40, HEK293 overexpressing CD40 as well as Raji cells (B-lymphocytes) and primary human dendritic cells, which express endogenous CD40, were used. TDI-Y-003 bound HEK293-CD40 and Raji cells with EC₅₀ values in the sub-nanomolar range at 0.44 and 0.77 nM, respectively (Table 5).

[9] = target: T1, human CD40 on cells; assay: flow cytometry, HEK293 cells overexpressing CD40
Description: as §3

[10] = target: T1, human CD40 on cells; assay: flow cytometry, primary human dendritic cells (endogenous CD40)
Description: as §3

[11] = target: T5, human CD40-Fc (human, UniProt P25942 21-192); assay: BLI, Octet Red96e; avidity between bivalent IgG and dimeric CD40-Fc
T5 construct: range 21-192; also called dimeric CD40-Fc; not shown: human Fc fragment fused to the carboxy-terminus
T5 sequence (P25942 21-192): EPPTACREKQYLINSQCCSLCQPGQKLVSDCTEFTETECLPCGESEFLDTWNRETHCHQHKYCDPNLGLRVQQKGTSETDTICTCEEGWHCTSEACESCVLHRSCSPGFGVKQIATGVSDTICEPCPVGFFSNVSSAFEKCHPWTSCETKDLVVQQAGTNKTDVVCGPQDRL
Description: as §1

[12] = target: T1, human CD40 on cells; assay: flow cytometry competition on HEK293 cells stably expressing CD40; competitor HA-tagged CD40 ligand detected with PE anti-HA
Description: FIG. 4. Competitive binding of TDI-Y-003 with CD40 ligand to CD40 stably expressed on HEK293 cells. HEK293 cells stably expressing CD40 were co-incubated with either TDI-Y-003 or isotype control antibody and HA-tagged CD40 ligand. CD40 ligand binding was assessed by flow cytometry with a PE labeled anti-HA antibody. Results are normalized to secondary antibody only controls (MFI ratio).
Competitive binding of TDI-Y-003 with CD40L for binding to CD40 was assessed using HEK293 cells stably expressing CD40. Cells were co-incubated with HA tagged CD40 ligand and TDI-Y-003 or isotype control at the indicated concentrations and analyzed for CD40 ligand binding by flow cytometry (FIG. 4).

T1 sequence (P25942 21-277): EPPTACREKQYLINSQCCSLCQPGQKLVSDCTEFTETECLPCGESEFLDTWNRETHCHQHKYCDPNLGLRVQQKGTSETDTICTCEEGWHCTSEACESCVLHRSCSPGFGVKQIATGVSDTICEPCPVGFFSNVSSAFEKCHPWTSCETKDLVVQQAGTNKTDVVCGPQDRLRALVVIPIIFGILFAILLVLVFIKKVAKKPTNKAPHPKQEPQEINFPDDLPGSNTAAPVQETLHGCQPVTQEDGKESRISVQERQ
T2 sequence (P25942 other isoform, or with tags, fused parts or gaps limits assumed): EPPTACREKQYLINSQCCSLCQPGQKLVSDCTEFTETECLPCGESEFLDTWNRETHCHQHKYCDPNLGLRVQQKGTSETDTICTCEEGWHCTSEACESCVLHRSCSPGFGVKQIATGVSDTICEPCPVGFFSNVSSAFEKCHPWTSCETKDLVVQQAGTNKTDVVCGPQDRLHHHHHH

B1: 10F12 chimeric mAb, human IgG1 (antibody, V domains shown)
VH: QVQLKQSGPGLVQPSQSLSITCTVSGFSLTTYGLHWVRQSPGKGLEWLGVIWRGGNTDYNAAFMSRLSITKDNSKSQVFFKMNSLQADDTAIYYCAKNSYYGNGGHAMDYWGQGTSVTVSS
VL: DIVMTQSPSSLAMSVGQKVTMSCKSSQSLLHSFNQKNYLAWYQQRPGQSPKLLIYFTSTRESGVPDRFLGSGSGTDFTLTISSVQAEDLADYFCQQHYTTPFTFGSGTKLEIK
notes: Mouse variable regions fused to human constant regions of the IgG1 subclass; Expressed in HEK293 cells; also called 10-F12 (Human IgG1)
B1 was tested, and the “EC50 for agonist activity (HEK293-CD40 NF-κB-Luciferase reporter system)” value (shortened to “EC50 for agonist activity”) [1] was 0.333 nM, the “Max Stim [% CD40L] (HEK293-CD40 NF-κB-Luciferase reporter system)” value (“Max Stim [% CD40L]” for short) [1] was 63.4 % CD40L and the Kd [2] was 27.1 nM. The koff [2] was 0.0071 s⁻¹ and the kon [2] was 262000 M⁻¹ s⁻¹.

B2: 10F12 chimeric mAb, human IgG2 (antibody, V domains shown)
VH: B1 VH
VL: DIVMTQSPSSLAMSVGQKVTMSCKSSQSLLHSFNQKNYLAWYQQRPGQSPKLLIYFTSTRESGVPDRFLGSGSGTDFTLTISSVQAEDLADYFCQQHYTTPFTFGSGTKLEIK
notes: Mouse variable regions fused to human constant regions of the IgG2 subclass; Expressed in HEK293 cells; also called 10-F12 (Human IgG2); 10-F12 hIgG2
B2 was tested, and the “EC50 for agonist activity” value [1] was 0.01 nM, the “Max Stim [% CD40L]” value [1] was 96.5 % CD40L and the Kd [2] was 26.5 nM. For the same binder, the koff [2] was 0.00911 s⁻¹ and the kon [2] was 344000 M⁻¹ s⁻¹.

B3: human CD40L (ligand, UniProt P29965 113-261, looked up)
chain: MQKGDQNPQIAAHVISEASSKTTSVLQWAEKGYYTMSNNLVTLENGKQLTVKRQGLYYIYAQVTFCSNREASSQAPFIASLCLKSPGRFERILLRAANTHSSAKPCGQQSIHLGGVFELQPGASVFVNVTDPSQVSHGTGFTSFGLLKL
In the case of B3, the “EC50 for agonist activity” value [1] is reported as 3.58 nM, the “Max Stim [% CD40L]” value [1] is reported as 100 % CD40L and the “EC50 in agonist assay (HEK293 NF-kB-luciferase reporter line stably expressing CD40)” value (“EC50 in agonist assay” for short) [3] is reported as 9.62 nM.

B4: TDI-Y-003 (antibody, human IgG2, kappa, V domains shown)
VH: QVQLQESGPGLVKPSETLSLTCTVSGFSLTTYGLHWIRQPPGKGLEWIGVIWRGGNTDYNPSLKSRVTISKDTSKNQVSLKLSSVTAADTAVYYCAKNSYYGQGGHAMDYWGQGTLVTVSS
VL: DIVMTQSPDSLAVSLGERATINCKSSQSLLHSFNQKNYLAWYQQKPGQPPKLLIYFTSTRESGVPDRFSGSGSGTDFTLTISSLQAEDVAVYYCQQHYTTPFTFGQGTKLEIKR
notes: also called Hu10F12 (N103Q); hu10F12 (N103Q)
Binder B4 has a Kd [4] of 40 nM, a koff [4] of 0.048 s⁻¹ and a kon [4] of 1.2e+06 M⁻¹ s⁻¹. For the same binder, the Kd [5] was 48 nM, the koff [5] was 0.0471 s⁻¹ and the kon [5] was 977000 M⁻¹ s⁻¹. For the same binder, the binding result [6] was “no binding (tested: 1.7 µM)”, the “EC50 in agonist assay” value [3] was 0.64 nM and the “EC50 in DC activation assay, marker CD80” value [7] was 2 nM. The “EC50 in DC activation assay, marker CD86” value [7] was 5.5 nM, the “EC50 in DC activation assay, marker HLA-ABC” value [7] was 2.5 nM and the “EC50 in DC activation assay, marker HLA-DR” value [7] was 1.7 nM. The EC50 [8] was 0.77 nM, the EC50 [9] was 0.44 nM and the EC50 [10] was 3.85 nM. For the same binder, the Kd [11] was 1.2 nM, the koff [11] was 0.0013 s⁻¹ and the kon [11] was 1e+06 M⁻¹ s⁻¹. It also gave an IC50 [12] of 1.07 nM.

B5: TDI-Y-003 Fab fragment generated by papain cleavage (Fab, V domains shown)
VH: B4 VH
VL: B4 VL
In the case of B5, the “EC50 in agonist assay” value [3] is reported as 112 nM.

B6: TDI-Y-003 F(ab′)2 fragment generated by pepsin cleavage (other)
heavy: QVQLQESGPGLVKPSETLSLTCTVSGFSLTTYGLHWIRQPPGKGLEWIGVIWRGGNTDYNPSLKSRVTISKDTSKNQVSLKLSSVTAADTAVYYCAKNSYYGQGGHAMDYWGQGTLVTVSSASTKGPSVFPLAPCSRSTSESTAALGCLVKDYFPEPVTVSWNSGALTSGVHTFPAVLQSSGLYSLSSVVTVPSSNFGTQTYTCNVDHKPSNTKVDKTVERKCCVECPPCPAPPVAGPSVFLFPPKPKDTLMISRTPEVTCVVVDVSHEDPEVQFNWYVDGVEVHNAKTKPREEQFNSTFRVVSVLTVVHQDWLNGKEYKCKVSNKGLPAPIEKTISKTKGQPREPQVYTLPPSREEMTKNQVSLTCLVKGFYPSDIAVEWESNGQPENNYKTTPPMLDSDGSFFLYSKLTVDKSRWQQGNVFSCSVMHEALHNHYTQKSLSLSPG
light: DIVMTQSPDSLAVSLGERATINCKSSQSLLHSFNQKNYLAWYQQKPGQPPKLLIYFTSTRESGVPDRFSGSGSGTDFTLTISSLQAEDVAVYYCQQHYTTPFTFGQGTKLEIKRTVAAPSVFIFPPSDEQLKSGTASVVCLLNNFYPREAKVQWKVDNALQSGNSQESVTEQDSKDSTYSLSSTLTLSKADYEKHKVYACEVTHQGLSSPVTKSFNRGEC
In the case of B6, the “EC50 in agonist assay” value [3] is reported as 2.14 nM.
